According to patent publication US20120010388A1 (published 2012):

Key:
HER2 [1] = target: T1, HER2 (UniProt P04626 23-1255, limits assumed); experiment: cell-based or functional assay
HER2 [2] = target: T1, HER2; experiment: flow cytometry on SKBR3 cells (HER2 and Lewis Y on the cells), PE anti-human Fc detection, half maximal staining intensity
Method: SKBR3 cells are cultured in RPMI1640 containing 10% fetal calf serum an 8 mM glutamine. The cells are harvested by trypsination. A total of 1×10⁵ cells in PBS containing 0.1% BSA are incubated with dilutions of the bispecific molecules or control proteins (anti-Lewis Y antibody IGN311 and anti-HER Fcabs respectively) in the range of 1 mM to 0.1 nM and incubated on ice for 20 min. After removal of excess of bispecific molecules or control proteins cells are incubated for 10 min on ice with phycoerythrin-R-coupled polyclonal anti-human FC antibody (Sigma). Measurements are performed on a FACS analyzer (FACS Calibur).
The half maximal staining intensity (EC50) is reached for molecule no. 1 at around 1 nM and for molecule no. 2 at around 10 nM.

B1: molecule no. 1 (IGN311/Fcab 10-03-6) (bispecific antibody, human IgG1, kappa)
heavy: EVQLLESGGGLVQPGGSLRLSCAASGFTFSDYYMYWVRQAPEKRLEWVAYISNGGGSSHYVDSVKGRFTISRDNAKNTLYLQMNSLRAEDTALYHCARGMDYGAWFAYWGQGTLVTVSSASTKGPSVFPLAPSSKSTSGGTAALGCLVKDYFPEPVTVSWNSGALTSGVHTFPAVLQSSGLYSLSSVVTVPSSSLGTQTYICNVNHKPSNTKVDKKVEPKSCDKTHTCPPCPAPELLGGPSVFLFPPKPKDTLMISRTPEVTCVVVDVSHEDPEVKFNWYVDGVEVHNAKTKPREEQYNSTYRVVSVLTVLHQDWLNGKEYKCKVSNKALPAPIEKTISKAKGQPREPQVYTLPPSRDEYLHGDVSLTCLVKGFYPSDIAVEWESNGQPENNYKTTPPVLDSDGSFFLYSKLTVARYSPRMLRWAHGNVFSCSVMHEALHNHYTQKSLSLSPGK
light: DIVMTQSPLSLPVTPGEPASISCRSSQSIVHSNGNTYLEWYLQKPGQSPQLLISKVSNRFSGVPDRFSGSGSGTDFTLKISRVEAEDVGVYYCFQGSHVPFTFGQGTKLEIKRTVAAPSVFIFPPSDEQLKSGTASVVCLLNNFYPREAKVQWKVDNALQSGNSQESVTEQDSKDSTYSLSSTLTLSKADYEKHKVYACEVTHQGLSSPVTKSFNRGEC
notes: IgG: humanized anti-Lewis Y antibody IGN311 whose CH3 domain is replaced by the CH3 of the anti-HER2 Fcab 10-03-6
**Q.** With B1 as the binder, how does the “half maximal (50%) immediate cytotoxicity (EC50), 51Cr release from SKBR3 cells” value (HER2 [1]) read?
**A.** The value was ~1 nM.

**Q.** What about the EC50 (HER2 [2]) of the same binder?
**A.** Its EC50 is ~1 nM.

B2: molecule no. 2 (IGN311/Fcab H561G3M1G4) (bispecific antibody, human IgG1, kappa)
heavy: EVQLLESGGGLVQPGGSLRLSCAASGFTFSDYYMYWVRQAPEKRLEWVAYISNGGGSSHYVDSVKGRFTISRDNAKNTLYLQMNSLRAEDTALYHCARGMDYGAWFAYWGQGTLVTVSSASTKGPSVFPLAPSSKSTSGGTAALGCLVKDYFPEPVTVSWNSGALTSGVHTFPAVLQSSGLYSLSSVVTVPSSSLGTQTYICNVNHKPSNTKVDKKVEPKSCDKTHTCPPCPAPELLGGPSVFLFPPKPKDTLMISRTPEVTCVVVDVSHEDPEVKFNWYVDGVEVHNAKTKPREEQYNSTYRVVSVLTVLHQDWLNGKEYKCKVSNKALPAPIEKTISKAKGQPREPQVYTLPPSRDEFFTYWVSLTCLVKGFYPSDIAVEWESNGQPENNYKTTPPVLDSDGSFFLYSKLTVDRRRWTAGNVFSCSVMHEALHNHYTQKSLSLSPGK
light: DIVMTQSPLSLPVTPGEPASISCRSSQSIVHSNGNTYLEWYLQKPGQSPQLLISKVSNRFSGVPDRFSGSGSGTDFTLKISRVEAEDVGVYYCFQGSHVPFTFGQGTKLEIKRTVAAPSVFIFPPSDEQLKSGTASVVCLLNNFYPREAKVQWKVDNALQSGNSQESVTEQDSKDSTYSLSSTLTLSKADYEKHKVYACEVTHQGLSSPVTKSFNRGEC
notes: IgG: humanized anti-Lewis Y antibody IGN311 whose CH3 domain is replaced by the CH3 of the anti-HER2 Fcab H561G3M1G4
**Q.** What does the source list for B2?
**A.** half maximal (50%) immediate cytotoxicity (EC50), 51Cr release from SKBR3 cells (HER2 [1]): ~10 nM; EC50 (HER2 [2]): ~10 nM
